Test [1] concerns the target human L1CAM on the surface of human cancer cell lines (human) (UniProt P32004). The experiment in a line: flow cytometry on SKOV3 cells, PE-labeled isotype control (background), mean of triplicates.
For test [2] the target is unchanged. The experiment in a line: flow cytometry on HeLa cells, PE-labeled isotype control (background), mean of triplicates. (In flow cytometry, cells or beads pass a laser one at a time.)
The target is the same in test [3]. The test is described as follows: flow cytometry on PC-03 cells, PE-labeled isotype control (background), mean of triplicates.
Test [4] shares this target. The test is described as follows: flow cytometry on Panc-1 cells, PE-labeled isotype control (background), mean of triplicates.
Test [5] has the same target. The test is described as follows: flow cytometry on HeLa cells, against PE-labeled isotype control MOPC-173.
The target is the same in test [6]. The test is described as follows: flow cytometry on HeLa cells, PE-labeled antibody, mean of triplicates.
Test [7] has the same target. The test is described as follows: flow cytometry on SKOV3 cells, against PE-labeled isotype control MOPC-173.
The target is the same in test [8]. The test is described as follows: flow cytometry on PC-03 cells, against PE-labeled isotype control MOPC-173.
Test [9] shares this target. The test is described as follows: flow cytometry on Panc-1 cells, against PE-labeled isotype control MOPC-173.
The target is the same in test [10]. The experiment in a line: flow cytometry on PC-03 cells, PE-labeled antibody, mean of triplicates.
Test [11] has the same target. The test is described as follows: flow cytometry on SKOV3 cells, PE-labeled antibody, mean of triplicates.
For test [12] the target is unchanged. The experiment in a line: flow cytometry on Panc-1 cells, PE-labeled antibody, mean of triplicates.

human L1CAM on the surface of human cancer cell lines (human), sequence (P32004 20-1257): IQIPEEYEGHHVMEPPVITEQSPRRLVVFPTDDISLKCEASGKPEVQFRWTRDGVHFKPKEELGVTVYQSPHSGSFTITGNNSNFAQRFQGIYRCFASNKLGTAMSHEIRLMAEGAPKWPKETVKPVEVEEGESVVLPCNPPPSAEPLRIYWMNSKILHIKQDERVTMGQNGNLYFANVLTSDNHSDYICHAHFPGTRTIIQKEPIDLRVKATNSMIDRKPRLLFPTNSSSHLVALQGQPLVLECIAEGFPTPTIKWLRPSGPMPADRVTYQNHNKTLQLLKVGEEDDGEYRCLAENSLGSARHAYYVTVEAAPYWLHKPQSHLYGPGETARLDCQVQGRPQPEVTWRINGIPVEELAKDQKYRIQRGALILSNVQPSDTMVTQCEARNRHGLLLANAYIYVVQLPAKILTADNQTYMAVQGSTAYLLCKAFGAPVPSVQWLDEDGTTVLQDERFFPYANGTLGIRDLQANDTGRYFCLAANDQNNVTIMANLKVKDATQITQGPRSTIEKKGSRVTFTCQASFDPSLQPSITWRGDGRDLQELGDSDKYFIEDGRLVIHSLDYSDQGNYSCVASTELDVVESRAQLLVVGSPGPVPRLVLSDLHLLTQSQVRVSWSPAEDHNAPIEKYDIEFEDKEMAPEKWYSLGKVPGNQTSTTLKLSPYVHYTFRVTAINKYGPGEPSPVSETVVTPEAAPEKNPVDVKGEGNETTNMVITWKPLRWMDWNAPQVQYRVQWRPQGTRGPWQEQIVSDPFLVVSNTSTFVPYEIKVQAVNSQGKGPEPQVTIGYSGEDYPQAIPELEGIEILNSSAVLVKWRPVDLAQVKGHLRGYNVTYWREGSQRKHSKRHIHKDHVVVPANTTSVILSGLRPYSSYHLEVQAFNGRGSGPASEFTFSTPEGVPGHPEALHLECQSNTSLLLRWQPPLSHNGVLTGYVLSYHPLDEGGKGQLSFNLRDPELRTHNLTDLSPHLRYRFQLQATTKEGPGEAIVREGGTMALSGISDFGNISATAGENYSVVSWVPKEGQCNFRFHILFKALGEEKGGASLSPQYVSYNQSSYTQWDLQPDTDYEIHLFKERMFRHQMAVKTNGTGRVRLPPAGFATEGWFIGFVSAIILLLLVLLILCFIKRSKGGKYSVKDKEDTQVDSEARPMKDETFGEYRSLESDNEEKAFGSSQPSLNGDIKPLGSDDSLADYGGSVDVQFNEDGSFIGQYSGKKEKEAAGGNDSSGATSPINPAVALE

Regarding “PE-labeled mouse IgG2a (κ) (clone MOPC-173, BioLegend) (antibody)”, the MFI isotype control antibody in test [1] worked out at 8680 MFI; in test [2], 9140 MFI; in test [3] it was 9420 MFI; in [4], 13100 MFI.
“phycoerythrin (PE)-labeled anti-human L1CAM antibody (clone L1-OV198.5, BioLegend)”: the Fold increase in MFI (anti-L1CAM vs isotype) in test [5] was 133 fold; in test [7], 173 fold; in [8] it was 5 fold; in test [9], 14 fold. Further, the MFI anti-L1CAM antibody in test [6] is 1.22e+06 MFI; in test [10], 46400 MFI; in test [11], 1.5e+06 MFI; in test [12], 183000 MFI.

The record behind these values is patent publication US20260234245A1.
